# Experimental data from IntAct's records for PubMed 16293620.
# Biological target: pag_bacan pagA (UniProt P13423)
row,Substance,effect of a mutation on the interaction
1,Lethal factor (Bacillus anthracis) (from UniProt P15917) D139A,decreasing interaction
2,Lethal factor (Bacillus anthracis) (from UniProt P15917) D169A,decreasing interaction
3,Lethal factor (Bacillus anthracis) (from UniProt P15917) D169K,decreasing interaction
4,Lethal factor (Bacillus anthracis) (from UniProt P15917) E168A,decreasing interaction
5,Lethal factor (Bacillus anthracis) (from UniProt P15917) E168K,decreasing interaction
6,Lethal factor (Bacillus anthracis) (from UniProt P15917) K176A,decreasing interaction
7,Lethal factor (Bacillus anthracis) (from UniProt P15917) N173A,decreasing interaction
8,Lethal factor (Bacillus anthracis) (from UniProt P15917) Y141K,decreasing interaction
